{"source": "patent US20250369013A1", "about": "(ENSOMA, published 2025)"}
{"target": "T1, CD46 (UniProt P15529 35-343)", "T1 construct": "The form used in the Kd measurement is not described", "T1 sequence": "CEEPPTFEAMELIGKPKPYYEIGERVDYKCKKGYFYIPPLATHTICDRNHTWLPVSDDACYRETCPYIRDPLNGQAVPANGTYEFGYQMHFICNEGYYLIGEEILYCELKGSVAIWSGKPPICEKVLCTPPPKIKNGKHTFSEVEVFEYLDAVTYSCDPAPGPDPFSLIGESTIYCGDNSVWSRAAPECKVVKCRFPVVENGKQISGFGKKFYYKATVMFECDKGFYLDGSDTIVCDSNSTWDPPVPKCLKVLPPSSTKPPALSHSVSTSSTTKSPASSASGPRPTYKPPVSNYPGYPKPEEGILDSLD", "experiment": "Kd of knob for CD46; method not stated", "units": {"Kd": "nM"}}
{"binder": "Mutated Ad35 Knob A8: Ile192Val Ile256Val (other) LWTGINPPPNCQIVENTNTNDGKLTLVLVKNGGLVNGYVSLVGVSDTVNQMFTQKTANVQLRLYFDSSGNLLTEESDLKIPLKNKSSTATSETVASSKAFMPSTTAYPFNTTTRDSENYIHGVCYYMTSYDRSLFPLNISIMLNSRMISSNVAYAIQFEWNLNASESPESNIATLTTSPFFFSYITEDDN", "Kd": 13.7}
{"binder": "wtAd35(207Asp) knob (other, also called B2) LWTGINPPPNCQIVENTNTNDGKLTLVLVKNGGLVNGYVSLVGVSDTVNQMFTQKTANIQLRLYFDSSGNLLTDESDLKIPLKNKSSTATSETVASSKAFMPSTTAYPFNTTTRDSENYIHGICYYMTSYDRSLFPLNISIMLNSRMISSNVAYAIQFEWNLNASESPESNIATLTTSPFFFSYITEDDN", "Kd": 15}
{"binder": "Ad11 (fiber knob) (other, also called B7) LWTGVNPTEANCQIMNSSESNDCKLILTLVKTGALVTAFVYVIGVSNNFNMLTTHRNINFTAELFFDSTGNLLTRLSSLKTPLNHKSGQNMATGAITNAKGFMPSTTAYPFNDNSREKENYIYGTCYYTASDRTAFPIDISVMLNRRAINDETSYCIRITWSWNTGDAPEVQTSATTLVTSPFTFYYIREDD", "Kd": 11.2}
